Results taken from the supplement of paper PMC10567573.
± gives the standard deviation.

Assay: protein stability index of a GFP-peptide fusion (GPS, HEK-293T) (PSI 1-6); higher = more stable
[1] = treatment: DMSO, c terminus: a fixed tail appended
[2] = treatment: MLN4924 1 uM, 8 h, c terminus: a fixed tail appended
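Note: 24-mer peptide tiles fused after GFP, lentivirally expressed, FACS-sorted into six equal bins by GFP/DsRed ratio, decoded by Illumina sequencing, PSI is the read-weighted mean bin number.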

| Sequence | protein stability index [1] | protein stability index [2] | protein stability index (treatment: DMSO, c terminus: native) | protein stability index (treatment: MLN4924 1 uM, 8 h, c terminus: native) |
| --- | --- | --- | --- | --- |
| GCLLPDGSRMMAVAALVVNFSQPV [NLN] | 3.04 ± 0.46 | 2.75 ± 0.81 | – | – |
| FSGSNEVDQMNRIVEVLGIPPAAM [DYRK1B] | 2.94 ± 0.14 | 3.23 ± 0.22 | – | – |
| IELLTGETWNPFKLQYQLRNVRER [GOLPH3L] | 2.29 ± 0.27 | 2.49 ± 0.21 | – | – |
| FKHTLSISRALLSDVVPEKERPLV [MFSD9] | 3.04 ± 0.12 | 3.24 ± 0.21 | – | – |
| MRKTSNSCIMENGHQPGTGPGDGP [SMTNL2] | 4.42 ± 0.064 | 4.55 ± 0.11 | – | – |
| KMLGNPSRLPAKCPGKGAWSIPWK [FKBP8] | 2.08 ± 0.26 | 2.25 ± 0.23 | – | – |
| VTRQPRNLQDLCRIKIRQCIGLQN [ASB7] | 3.4 ± 0.56 | 3.35 ± 0.39 | – | – |
| HVHDPHGQVIWGMSWAKLARQATN [FBXO39] | 2.58 ± 0.32 | 2.94 ± 0.21 | – | – |
| IKSIVEASKGCQLGKTEQGFENMD [TRIM63] | 4.54 ± 0.31 | 4.38 ± 0.33 | – | – |
| IIDSSLEDITYVLKPTFTKQQIAN [USP39] | 2.69 ± 0.26 | 2.8 ± 0.24 | – | – |
| KLTKESYPVVVAESMYGDFQEAMT [TENT5D] | 3.16 ± 0.2 | 3.41 ± 0.37 | – | – |
| RRRRMETIVFLDKEVFASRISNPS [PCMTD2] | 2.57 ± 0.26 | 2.77 ± 0.38 | – | – |
| GLSDPGKIKRLRSQVQVSLEDYIN [HNF4A] | 2.78 ± 0.34 | 2.93 ± 0.18 | – | – |
| ETLPELKDDKDFTGTVHRIDNTTV [KCNA1] | 5.12 ± 0.24 | 5.17 ± 0.072 | – | – |
| GTADGADLRTVDPETQARLEALLE [ANKRD17] | 4.42 ± 0.15 | 4.5 ± 0.21 | – | – |
| PVTERQIEREHLIQLRRWQETRGE [TBC1D10A] | 4.25 ± 0.14 | 4.33 ± 0.18 | – | – |
| THKKCKEEVVSTLDAVQVLSGVSQ [FCHO1] | 3.77 ± 0.23 | 3.64 ± 0.16 | – | – |
| EEKVRDLLWAKFTNSDTPTSFNHM [TOR1AIP2] | 3.08 ± 0.12 | 3.19 ± 0.13 | – | – |
| SNRWLMVKIFLILIVFFIIFVVFL [STX5] | 3.38 ± 0.24 | 3.45 ± 0.32 | – | – |
| AVSDGRHMFVWGGYKSNQVRGLYD [KLHDC2] | 2.28 ± 0.58 | 2.27 ± 0.51 | – | – |
| AVADSIPQVLADLGSFESPANSET [PCDHGA10] | 5.07 ± 0.54 | 5.35 ± 0.2 | – | – |
| KGGLVWDENSSDGRYVKENCKPLK [CLK3] | 4.53 ± 0.098 | 4.82 ± 0.12 | – | – |
| DEDAGLPRPVQLDETHPYTVTSVS [NEK8] | 5.12 ± 0.19 | 5.23 ± 0.18 | – | – |

| Sequence | protein stability index [1] | protein stability index [2] | protein stability index (treatment: DMSO, c terminus: native) | protein stability index (treatment: MLN4924 1 uM, 8 h, c terminus: native) |
| --- | --- | --- | --- | --- |
| RRMTVVGRLEGLIQPDDLINQLTF [FAF2] | 2.36 ± 0.2 | 2.33 ± 0.49 | – | – |
| DQLAFIEELFSLMVVNRLTEELGC [EID1] | 3.01 ± 1.2 | 3.21 ± 0.51 | – | – |
| SWGWDLGRNRLYHDGKNQPSKTYP [SPSB1] | 3.65 ± 0.094 | 3.53 ± 0.34 | – | – |
| TKPVVILPCQHNLCRKCANDIFQA [TRIM63] | 2.36 ± 0.26 | 2.55 ± 0.27 | – | – |
| AKGWGPCYSRQFITSCPCWLEILL [SMAD6] | 2.69 ± 0.29 | 2.8 ± 0.42 | – | – |
| YDPKENKWTRVASMSTRRLGVAVA [KLHL20] | 2.29 ± 0.27 | 2.38 ± 0.28 | – | – |
| IRDLDVVVVSVAGAFRKGKSFILD [ATL3] | 2.3 ± 0.64 | 2.34 ± 0.45 | – | – |
| DLYRDVMLENYSNLVSVGYQAGKP [ZNF649] | 2.82 ± 0.53 | 2.85 ± 0.23 | – | – |
| SLTNDWEDHLAVKHFSVEGQLEFR [HSP90AB1] | 3.49 ± 0.23 | – | – | – |
| KTVDKHSDEYKIRRERNNIAVRKS [CEBPB] | 4.59 ± 0.17 | 4.79 ± 0.39 | – | – |
| HSLYRRTGASFQKAQQEFAAGVFS [SCAMP3] | 2.81 ± 0.14 | 2.85 ± 0.14 | – | – |
| KQTQCPADPLQLNKALSIILHLIC [FEM1C] | 1.91 ± 0.17 | 2.21 ± 0.39 | – | – |
| IEIEDEAEKWQKEKDRIKSFTTNE [TRIM29] | 4.94 ± 0.17 | 4.96 ± 0.16 | – | – |
| VLMIAIQLISRMEYVHSKNLIYRD [CSNK1G3] | 2.86 ± 0.13 | 2.72 ± 0.44 | – | – |
| SVTRSCLLEEEEESGEEAAEAME [POP5] | – | – | 5.52 ± 0.23 | 5.49 ± 0.12 |
| ASLTIPLVPETEDDRKLAALLKFH [YJU2B] | 3.05 ± 0.24 | 3.41 ± 0.24 | – | – |
| PGSIIGPQQHFLEEKQASLWVQGD [CDC14A] | 4.04 ± 0.37 | 4.14 ± 0.4 | – | – |
| AVTDLLGRRQRKSEKRRDPPNGPN [WASL] | 4.06 ± 0.14 | 4.31 ± 0.29 | – | – |
| DYLIQATNETNVNIPQMADTLFER [SNAP91] | 3.64 ± 0.29 | 3.75 ± 0.2 | – | – |
| KMLSKAVDALKSDKKVRTIIIRSE [AUH] | 1.81 ± 0.26 | 2 ± 0.6 | – | – |
| PGCGYFCTAGNFMECQPESSISHR [EHMT1] | 2.64 ± 0.15 | 2.61 ± 0.53 | – | – |
| ETEARYSSQLAQMQCLISNVEAQL [KRT36] | 3.26 ± 0.31 | 3.2 ± 0.34 | – | – |
| AAQDRPMSPGDCPPETTETPKCSS [YJU2B] | 5.54 ± 0.24 | 5.3 ± 0.34 | – | – |

| Sequence | protein stability index [1] | protein stability index [2] | protein stability index (treatment: DMSO, c terminus: native) | protein stability index (treatment: MLN4924 1 uM, 8 h, c terminus: native) |
| --- | --- | --- | --- | --- |
| ASPRRLSNVSSSGSINLLESPQLA [MAP2] | 4.2 ± 0.2 | 4.12 ± 0.15 | – | – |
| AVPEDLADRLVRVHGDPAVWWVSQ [FUT8] | 2.61 ± 0.29 | 2.65 ± 0.039 | – | – |
| RALQERLGQQQRDMRRDEEGSLCA [FBF1] | 4.95 ± 0.36 | 5.03 ± 0.32 | – | – |
| MAEAAALVWIRGPGFGCKAVRCAS [SDE2] | 2.45 ± 0.47 | 2.35 ± 0.53 | – | – |
| AAETRGAVEGAARTTPSRREITGV [PALM] | 4.86 ± 0.36 | 5.07 ± 0.18 | – | – |
| TNALTHTVAMSTLNFCGPNVINHF [OR3A1] | 2.41 ± 0.57 | 2.47 ± 0.27 | – | – |
| LGYQAVPSGSSGSLSTSSSSSPPG [CEBPB] | 4.78 ± 0.12 | 4.85 ± 0.14 | – | – |
| ESEGSESSGRSCRNERSIQEKLQV [SMG5] | 4.82 ± 0.12 | 4.75 ± 0.27 | – | – |
| SSLRRQFEFSVDSFQIVLDPMLDF [TENT5D] | 2.41 ± 0.32 | 2.17 ± 0.25 | – | – |
| RKSVPGPGNRTCTGTSKRYQLCRV [ADAMTSL2] | 2.91 ± 0.41 | 2.68 ± 0.093 | – | – |
| SREFFNRRGELRHITKLKPWSLFD [SRPK2] | 2.56 ± 0.07 | 2.9 ± 0.32 | – | – |
| LTEQQEQLRGQLQDLDSRLRAGSS [RASAL3] | 5.08 ± 0.18 | 5.19 ± 0.23 | – | – |
| FLMLINLGLGSMIGTMAGITTPII [SLC6A17] | 3.1 ± 0.31 | 3.03 ± 0.76 | – | – |
| LHESYCMDTSHQPLLPAPPKTPMD [LYSMD4] | 4.65 ± 0.27 | 4.59 ± 0.11 | – | – |
| YNSPQFKKTMSTFHNLVSLNLNYN [FBXO39] | 2.25 ± 0.32 | 2.12 ± 0.4 | – | – |
| RLKEMKLLRDQFVKALEDFEDLCD [FAM9B] | 2.27 ± 0.13 | 2.52 ± 0.38 | – | – |
| EVVMNSQQTPVGTPKDKRVSNTPL [PALM] | 3.44 ± 0.2 | 3.61 ± 0.2 | – | – |
| MRVDLRAGDEAVFAQYDSFHVDSA [TNXB] | 3.34 ± 0.56 | 3.22 ± 0.37 | – | – |
| WEEEKALWVEERALLEGEKALWED [CCDC70] | 5.07 ± 0.28 | 5.22 ± 0.13 | – | – |
| KKEQRRLGIPKNPWLWSEQQVCQW [ETS2] | 2.12 ± 0.18 | 2.43 ± 0.43 | – | – |
| KNANRPLLDEIVPVYRRDCHEEVY [ACBD3] | 3.88 ± 0.1 | 3.74 ± 0.15 | – | – |
| APDRATAVATASRLGPYVLLEPEE [TRIB3] | 5.04 ± 0.31 | 5.04 ± 0.24 | – | – |
| SMPRINHGVLSAEGFLFVFGGQDE [GAN] | 3.05 ± 0.41 | 2.88 ± 0.72 | – | – |

| Sequence | protein stability index [1] | protein stability index [2] | protein stability index (treatment: DMSO, c terminus: native) | protein stability index (treatment: MLN4924 1 uM, 8 h, c terminus: native) |
| --- | --- | --- | --- | --- |
| LPNHKPKGTFKDYVRDRADLNKDK [ETS1] | 4.552 ± 0.017 | 4.74 ± 0.32 | – | – |
| LGNLVEGLDFHRFYFENLWSRNSK [CAMK2A] | 2.2 ± 0.47 | 2.51 ± 0.24 | – | – |
| SYLMLVTVMMWPLAVYHRLWDRAY [RETREG3] | 3.62 ± 0.18 | 2.62 ± 0.6 | – | – |
| AYQEVFKPENISLRNKLRELCVKL [SMG5] | 2.24 ± 0.23 | 2.17 ± 0.35 | – | – |
| IRTKLNYNPPKDDGSTYKIELEGI [GAN] | 2.76 ± 0.1 | 2.84 ± 0.39 | – | – |
| SRRIPSTDANLPSGGKGFKLRRQP [RAB22A] | 4.09 ± 0.18 | 4.25 ± 0.23 | – | – |
| RPRRYVQPPEMIGPMRPEQFSDEV [GAGE1] | 3.86 ± 0.26 | 4.41 ± 0.32 | – | – |
| VLGFLIENFKGLAIPYLEHIIHVW [VPS39] | 2.36 ± 0.46 | 2.5 ± 0.31 | – | – |
| METSASSSQPQDNSQVHRETEDVD [TMEM40] | 5.54 ± 0.25 | 5.56 ± 0.32 | – | – |
| RNSKASAYCLDQGAEDGDRAILYP [GALNT9] | 4.32 ± 0.3 | 4.4 ± 0.2 | – | – |
| RQVVDILWSDPMAQEGCKANTIRG [PPEF2] | 3.14 ± 0.31 | 3.55 ± 0.38 | – | – |
| SALTFLRVDQDKDKDCSLDCAGSP [SMOC2] | 4.92 ± 0.42 | 5 ± 0.088 | – | – |
| MDSGTRPVGSCCSSPAGLSREYKL [RIT1] | 3.35 ± 0.18 | 3.3 ± 0.16 | – | – |
| SWIKMTKLEYEEIALDLTPVIEEL [FAN1] | 2.83 ± 0.69 | 2.7 ± 0.53 | – | – |
| HPGEHEVGEPEFHYIAGAHGNEVL [CPXM2] | 5.1 ± 0.29 | 4.98 ± 0.31 | – | – |
| QEYFERHRWPPVWYLKEEDHYQRV [RHOBTB1] | 3.08 ± 0.24 | 3.08 ± 0.1 | – | – |
| LAQIAEVLEMFDLRMMVENIMNKE [RHOBTB1] | 2.54 ± 0.35 | 2.22 ± 0.12 | – | – |
| TVTVISPLELMRTKLQAQHVSYRE [SLC25A39] | 2.65 ± 0.41 | 2.81 ± 0.22 | – | – |
| PPVMPGMPPGLHHQRKYTQSFCGE [ZNF207] | 3.76 ± 0.15 | 3.75 ± 0.14 | – | – |
| EPLFEAGDATLASDLQDWASVGAF [FOXJ1] | 3.85 ± 0.14 | 3.92 ± 0.4 | – | – |
